B1: hLDLR fused to GFP, on CHO-hLDLR-GFP cells (receptor)
chain: not shown
notes: whole, on cells; also called CHO-LDLR-GFP; not shown: GFP fused in the C-term position
B2: peptide SEQ ID NO: 1, (D)-Cys-Met-Thz-Arg-Leu-Arg-Gly-Pen (peptide)
peptide: XMXRLRGX
modifications: (D)-Cys at 1, Thz (thiazolidine-4-carboxylic acid) at 3, Pen (penicillamine) at 8; cyclised by a disulfide bridge

Assays:
[1] = target: T1, Fc alone (human Fc fragment of an IgG1 antibody) (human, UniProt P01857-1 104-330 = IgG part, limits assumed); experiment: pulse-chase immunocytochemistry on CHO-hLDLR-GFP cells, anti-human Fc antibody Alexa 594
T1 construct: domain: Fc fragment; Negative control

[2] = target: mouse LDLR (in vivo, wild-type against LDLR -/- mice) (mouse, UniProt P35951 22-862); experiment: cell-based or functional assay
mouse LDLR (in vivo, wild-type against LDLR -/- mice), sequence (P35951 22-862): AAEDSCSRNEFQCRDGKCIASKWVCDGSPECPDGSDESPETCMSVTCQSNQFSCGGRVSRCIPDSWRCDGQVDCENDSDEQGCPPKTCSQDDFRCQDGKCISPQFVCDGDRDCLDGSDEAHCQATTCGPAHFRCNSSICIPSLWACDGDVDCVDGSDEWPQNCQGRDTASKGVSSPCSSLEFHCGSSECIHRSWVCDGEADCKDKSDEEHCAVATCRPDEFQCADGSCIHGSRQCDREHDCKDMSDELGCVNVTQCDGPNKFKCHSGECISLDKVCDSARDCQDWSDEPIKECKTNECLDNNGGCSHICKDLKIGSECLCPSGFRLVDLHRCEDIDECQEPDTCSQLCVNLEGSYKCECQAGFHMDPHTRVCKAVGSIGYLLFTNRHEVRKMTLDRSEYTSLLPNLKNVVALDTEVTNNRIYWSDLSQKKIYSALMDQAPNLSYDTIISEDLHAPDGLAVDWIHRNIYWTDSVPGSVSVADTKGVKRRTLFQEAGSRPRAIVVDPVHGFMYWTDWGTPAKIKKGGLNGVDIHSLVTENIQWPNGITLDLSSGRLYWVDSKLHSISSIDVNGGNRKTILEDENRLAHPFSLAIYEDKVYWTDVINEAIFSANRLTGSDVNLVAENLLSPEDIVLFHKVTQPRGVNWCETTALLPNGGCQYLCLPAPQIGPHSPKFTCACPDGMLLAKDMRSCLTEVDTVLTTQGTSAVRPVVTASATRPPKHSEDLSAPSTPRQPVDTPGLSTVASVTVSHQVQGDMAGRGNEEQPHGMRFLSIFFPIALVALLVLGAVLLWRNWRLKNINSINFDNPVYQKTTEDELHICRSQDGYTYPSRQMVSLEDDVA

| Binder | binding result [1] | decrease in peptide concentration in the adrenal glands of LDLR-/- (KO) mice compared to wild-type mice, tritium-labelled peptide, 10 min after i.v. injection [2] | decrease in peptide concentration in the intestine of LDLR-/- (KO) mice compared to wild-type mice, tritium-labelled peptide, 10 min after i.v. injection [2] | decrease in peptide concentration in the liver of LDLR-/- (KO) mice compared to wild-type mice, tritium-labelled peptide, 10 min after i.v. injection [2] |
| --- | --- | --- | --- | --- |
| B1 | no binding (tested: 5 nM) | – | – | – |
| B2 | – | ~3.4 fold | ~3.6 fold | ~4 fold |

From EP2908837B1 (Vect-Horus, dated 2014)
